We go through 30 variants from PMC5880107, “The Sequence-specific Peptide-binding Activity of the Protein Sulfide Isomerase AGR2 Directs Its Stable Binding to the Oncogenic Receptor EpCAM*^([image sbox.jpg])” (Molecular & Cellular Proteomics : MCP, 2018).

First the molecules themselves.
B1: His-AGR2 WT (mature AGR2, amino acids 21-175, N-terminal 6xHis tag; plasmid pmAGR2) [human] / His-EpEX-CO, extracellular domain of EpCAM (amino acids 24-265), N-terminal 6xHis tag [human] (parent complex)
chain 1: RDTTVKPGAKKDTKDSRPKLPQTLSRGWGDQLIWTQTYEEALYKSKTSSKPLMIIHHLDECPHSQALKKVFAENKEIQKLAEQFVLLNLVYETTDKHLSPDGQYVPRIMFVDPSLTVRADITGRYSNRLYAYEPADTALLLDNMKKALKLLKTEL
chain 2: QEECVCENYKLAVNCFVNNNRQCQCTSVGAQNTVICSKLAAKCLVMKAEMNGSKLGRRAKPEGALQNNDGLYDPDCDESGLFKAKQCNGTSMCWCVNTAGVRRTDKDTEITCSERVRTYWIIIELKHKAREKPYDSKSLRTALQKEITTRYQLDPKFITSILYENNVITIDLVQNSSQKTQNDVDIADVAYYFEKDVKGESLFHSKKMDLTVNGEQLDLDPGQTLIYYVDEKAPEFSMQGLK
B2: wt-peptide PTTIYY (non-biotinylated hexapeptide) / His-AGR2 WT (mature AGR2, amino acids 21-175, N-terminal 6xHis tag; plasmid pmAGR2) [human] (parent complex)
chain 1: PTTIYY
chain 2: B1 chain 1

Variants of B1 are the subject of one test. Nature of the test: ELISA (His-EpCAM solid phase; His-AGR2 mobile phase); point at 0.5 μg AGR2 (highest dose of the titration); no DTT; read off a plot.
Regarding chain 1 P113A, the response was around 150 RLU. For the variant chain 1 D112A, the response is around 140 RLU. For chain 1 S114A, the response was around 160 RLU.

A further test covers variants of B1. The test can be described thus: ELISA (His-EpCAM solid phase; His-AGR2 mobile phase); point at 0.5 μg AGR2 (highest dose of the titration); 1 mm DTT at the AGR2-binding stage; read off a plot.
As to chain 1 P113A, the response is around 35 RLU. On the same count and under the same terms, under chain 1 D112A stands around 110 RLU; under chain 1 S114A, around 160 RLU.

Variants of B2 are the subject of a further test. The test can be described thus: competition ELISA (AGR2 binding to immobilised biotinylated peptide A4 with free competitor peptide); 1 μg AGR2; 100 ng competitor peptide; RLU is AGR2 bound to peptide A4, so lower RLU = stronger competitor binding; DMSO (no competitor) est. 79; read off a plot.
On to chain 1 Y5F, for which the response is around 40 RLU. The same measure, in the same setting: under chain 1 Y5A stands around 84 RLU; under chain 1 Y5W, around 20 RLU. Turning to chain 1 I4V, the response is around 55 RLU.

Regarding chain 1 I4L, the response was around 44 RLU. Still for that read-out and setting: the value for chain 1 I4A was around 83 RLU; that for chain 1 I4M was around 80 RLU; that for chain 1 T2A was around 84 RLU. As for chain 1 T2S, the response is around 83 RLU. Still for that read-out and setting: the value for chain 1 T2C was around 80 RLU; that for chain 1 T3I was around 75 RLU.

Consider chain 1 T3V, for which the response is around 35 RLU.

In the case of chain 1 T3M, the response is around 8 RLU. Turning to chain 1 T3S, the response is around 7 RLU. Take chain 1 T3L: the response was around 66 RLU. With chain 1 T3A, the response was around 6 RLU. As to chain 1 T3G, the response is around 12 RLU. Same read-out and setting: the value for chain 1 P1I was around 7.5 RLU; that for chain 1 P1F was around 6 RLU. As to chain 1 P1M, the response is around 17 RLU. For chain 1 P1W, the response is around 9 RLU. Regarding chain 1 P1A, the response is around 6 RLU. The same measure, in the same setting: the value for chain 1 P1G was around 7.5 RLU. The same measure, in the same setting: the value for chain 1 P1L was around 15 RLU; that for chain 1 P1V was around 11 RLU; that for chain 1 Y6A was around 60 RLU. In the case of chain 1 Y6F, the response was around 25 RLU.
